Measurements taken from US20250043302A1, “MUTATED HYDROXYPHENYLPYRUVATE DIOXYGENASE POLYPEPTIDE, AND CODING GENE AND USE THEREOF” (BEIJING DABEINONG BIOTECHNOLOGY CO., LTD., priority 2021, published 2025).
Residue numbers refer to the chain shown, from its start. Names may count otherwise.

B1: AsHPPDm-F372G-02: nucleotide sequence encoding Avena sativa HPPD with F372G; vector DBN11774 (nucleic acid)
DNA: ATGCCACCTACTCCAGCTACAGCTACTGGTGCTGCTGCTGCTGCCGTTACTCCTGAGCACGCTGCCAGGTCATTCCCCAGGGTGGTTCGCGTGAACCCCAGATCTGATAGGTTCCCAGTTCTGAGCTTCCACCATGTTGAGCTGTGGTGCGCTGATGCTGCTTCTGCTGCTGGCAGGTTCTCTTTCGCTCTTGGTGCTCCACTCGCTGCTAGATCTGATCTGTCTACAGGAAATAGCGCTCATGCCTCACTCCTGCTTCGCTCAGGTGCTTTGGCCTTCCTCTTCACCGCTCCATATGCTCCCCCACCTCAGGAGGCTGCTACTGCTGCTGCTACAGCCTCCATTCCAAGCTTCTCAGCTGATGCCGCTAGAACCTTCGCTGCTGCTCATGGACTTGCCGTGAGGTCTGTTGGTGTTCGCGTGGCTGATGCTGCTGAGGCTTTCAGAGTTTCCGTTGCCGGCGGAGCTAGGCCAGCTTTCGCTCCTGCTGATTTGGGACATGGTTTCGGCCTGGCTGAGGTTGAGCTTTACGGTGACGTGGTTCTCCGCTTCGTGTCTTACCCAGATGAGACTGACCTGCCTTTCCTTCCCGGCTTCGAGAGAGTTTCCTCTCCTGGTGCCGTGGATTACGGCCTGACAAGGTTCGACCACGTGGTTGGAAACGTTCCCGAGATGGCTCCAGTGATCGATTACATGAAGGGCTTCCTTGGATTCCATGAGTTCGCCGAGTTCACTGCTGAGGACGTGGGAACCACTGAGTCCGGTTTGAACTCTGTGGTTCTCGCCAACAATTCTGAGGCTGTTTTGCTCCCTCTGAATGAGCCTGTGCATGGAACCAAGAGGAGAAGCCAGATTCAAACTTACCTGGAGTACCACGGTGGCCCTGGAGTTCAGCATATCGCCCTTGCTTCTAATGATGTGTTGCGCACACTCAGAGAGATGCGCGCCAGAACCCCCATGGGAGGTTTCGAGTTCATGGCCCCACCACAGGCTAAGTACTACGAGGGCGTTAGAAGGATTGCTGGAGACGTGTTGAGCGAGGAGCAGATCAAGGAGTGCCAAGAGCTGGGTGTTCTTGTGGATAGGGATGACCAGGGCGTTCTGCTTCAAATTGGTACTAAGCCAGTGGGCGACCGCCCTACATTCTTCCTTGAGATGATTCAAAGAATCGGCTGCATGGAGAAGGATGAGGTTGGACAGGAGTACCAAAAGGGCGGATGCGGTGGCTTCGGAAAGGGTAACTTCAGCGAGTTGTTCAAGTCAATCGAGGACTACGAGAAGAGCCTCGAGGTGAAGCAGTCAGTGGTTGCCCAAAAGTCCTGA
modifications: AsHPPDm-F372G-02 Nucleotide Sequence
notes: vector DBN11774
B2: AsHPPDm-F372V-02: nucleotide sequence encoding Avena sativa HPPD with F372V; vector DBN11776 (nucleic acid)
DNA: B1 DNA with G1115T, T1116C
modifications: AsHPPDm-F372V-02 Nucleotide Sequence
notes: vector DBN11776
B3: AsHPPDm-F372G-F383W-02: nucleotide sequence encoding Avena sativa HPPD with F372G+F383W; vector DBN11775 (nucleic acid)
DNA: B1 DNA with T1148G, C1149G
modifications: AsHPPDm-F372G-F383W-02 Nucleotide Sequence
notes: vector DBN11775

System: Arabidopsis thaliana T1 plants
Assay: Topramezone tolerance of transgenic Arabidopsis thaliana T1 plants (spray, bleached leaf area grade, damage score)
Format: in vivo
Settings: topramezone 100 g ai/ha (4x field concentration); Arabidopsis thaliana T1 plants
How it was run: (§1)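 Damage graded 0–3 from the proportion of bleached leaf area 7 days after spraying. Plants were glufosinate-selected T1 lines, 18 days after sowing, plus vector and wild-type controls. Rates: mesotrione 52.5–420, isoxaflutole 35–280, topramezone 25–200 g ai/ha, with water (0×).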

Row | Molecule | Resistance evaluation | Scores
1 | B1 | Highly resistant | 0
2 | B2 | Highly resistant | 0
3 | B3 | Highly resistant | 0

Same assay, conditions: topramezone 100 g ai/ha (4x field concentration); Arabidopsis thaliana T1 plants; 16 plants

Row | Molecule | Grade 0 (classification and statistics of the grade of pesticide damage; number of plants) | Grade 1 (classification and statistics of the grade of pesticide damage; number of plants) | Grade 2 (classification and statistics of the grade of pesticide damage; number of plants) | Grade 3 (classification and statistics of the grade of pesticide damage; number of plants)
4 | B1 | 16 | 0 | 0 | 0
5 | B2 | 16 | 0 | 0 | 0
6 | B3 | 16 | 0 | 0 | 0

Same assay, conditions: topramezone 200 g ai/ha (8x field concentration); Arabidopsis thaliana T1 plants

Row | Molecule | Resistance evaluation | Scores
7 | B1 | Highly resistant | 0
8 | B2 | Highly resistant | 0
9 | B3 | Highly resistant | 0

Same assay, conditions: topramezone 200 g ai/ha (8x field concentration); Arabidopsis thaliana T1 plants; 16 plants

Row | Molecule | Grade 0 (classification and statistics of the grade of pesticide damage; number of plants) | Grade 1 (classification and statistics of the grade of pesticide damage; number of plants) | Grade 2 (classification and statistics of the grade of pesticide damage; number of plants) | Grade 3 (classification and statistics of the grade of pesticide damage; number of plants)
10 | B1 | 16 | 0 | 0 | 0
11 | B2 | 16 | 0 | 0 | 0
12 | B3 | 16 | 0 | 0 | 0

Same assay, conditions: topramezone at four-fold or eight-fold field concentration

Row | Molecule | tolerance to topramezone (resistance class)
13 | B1 | highly-resistant
14 | B2 | highly-resistant
15 | B3 | highly-resistant

System: Arabidopsis thaliana T1 plants
Assay: Isoxaflutole tolerance of transgenic Arabidopsis thaliana T1 plants (spray, bleached leaf area grade, damage score);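 for Scores: Weighted damage index from 0 to 100 where higher means more damage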
Format: in vivo
Settings: isoxaflutole 140 g ai/ha (2x field concentration); Arabidopsis thaliana T1 plants
How it was run: as §1

Row | Molecule | Resistance evaluation | Scores
16 | B1 | Moderately | 29
17 | B2 | Moderately | 33
18 | B3 | Highly resistant | 0

Same assay, conditions: isoxaflutole 140 g ai/ha (2x field concentration); Arabidopsis thaliana T1 plants; 16 plants

Row | Molecule | Grade 0 (classification and statistics of the grade of pesticide damage; number of plants) | Grade 1 (classification and statistics of the grade of pesticide damage; number of plants) | Grade 2 (classification and statistics of the grade of pesticide damage; number of plants) | Grade 3 (classification and statistics of the grade of pesticide damage; number of plants)
19 | B1 | 6 | 7 | 2 | 1
20 | B2 | 6 | 5 | 4 | 1
21 | B3 | 16 | 0 | 0 | 0

Same assay, conditions: isoxaflutole 280 g ai/ha (4x field concentration); Arabidopsis thaliana T1 plants

Row | Molecule | Resistance evaluation | Scores
22 | B1 | Poorly resistant | 67
23 | B2 | Poorly resistant | 67
24 | B3 | Highly resistant | 8

Same assay, conditions: isoxaflutole 280 g ai/ha (4x field concentration); Arabidopsis thaliana T1 plants; 16 plants

Row | Molecule | Grade 0 (classification and statistics of the grade of pesticide damage; number of plants) | Grade 1 (classification and statistics of the grade of pesticide damage; number of plants) | Grade 2 (classification and statistics of the grade of pesticide damage; number of plants) | Grade 3 (classification and statistics of the grade of pesticide damage; number of plants)
25 | B1 | 0 | 0 | 16 | 0
26 | B2 | 0 | 0 | 16 | 0
27 | B3 | 12 | 4 | 0 | 0

System: Arabidopsis thaliana T1 plants
Assay: Mesotrione tolerance of transgenic Arabidopsis thaliana T1 plants (spray, bleached leaf area grade, damage score)
Format: in vivo
Set-up: Scores: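 damage score 0-100 computed as Σ(N×S)/(T×M)×100 over grades 0-3 with higher meaning more damage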
Settings: Table 9; mesotrione 210 g ai/ha (2×)
How it was run: as §1

Row | Molecule | Resistance evaluation
28 | B1 | Moderately
29 | B2 | Moderately
30 | B3 | Highly resistant

Same assay, conditions: Table 9; mesotrione 210 g ai/ha (2×); number of plants at grade 0

Row | Molecule | Classification and statistics of the grade of pesticide damage Grade 0
31 | B1 | 5
32 | B2 | 5
33 | B3 | 16

Same assay, conditions: Table 9; mesotrione 210 g ai/ha (2×); number of plants at grade 1

Row | Molecule | Classification and statistics of the grade of pesticide damage Grade 1
34 | B1 | 8
35 | B2 | 7
36 | B3 | 0

Same assay, conditions: Table 9; mesotrione 210 g ai/ha (2×); number of plants at grade 2

Row | Molecule | Classification and statistics of the grade of pesticide damage Grade 2
37 | B1 | 2
38 | B2 | 4
39 | B3 | 0

Same assay, conditions: Table 9; mesotrione 210 g ai/ha (2×); number of plants at grade 3

Row | Molecule | Classification and statistics of the grade of pesticide damage Grade 3
40 | B1 | 1
41 | B2 | 0
42 | B3 | 0

Same assay, conditions: Table 9; mesotrione 210 g ai/ha (2×); pesticide damage score

Row | Molecule | Scores
43 | B1 | 31
44 | B2 | 31
45 | B3 | 0

Same assay, conditions: Table 9; mesotrione 420 g ai/ha (4×)

Row | Molecule | Resistance evaluation
46 | B1 | Poorly resistant
47 | B2 | Poorly resistant
48 | B3 | Highly resistant

Same assay, conditions: Table 9; mesotrione 420 g ai/ha (4×); number of plants at grade 0

Row | Molecule | Classification and statistics of the grade of pesticide damage Grade 0
49 | B1 | 0
50 | B2 | 0
51 | B3 | 13

Same assay, conditions: Table 9; mesotrione 420 g ai/ha (4×); number of plants at grade 1

Row | Molecule | Classification and statistics of the grade of pesticide damage Grade 1
52 | B1 | 8
53 | B2 | 8
54 | B3 | 3

Same assay, conditions: Table 9; mesotrione 420 g ai/ha (4×); number of plants at grade 2

Row | Molecule | Classification and statistics of the grade of pesticide damage Grade 2
55 | B1 | 8
56 | B2 | 7
57 | B3 | 0

Same assay, conditions: Table 9; mesotrione 420 g ai/ha (4×); number of plants at grade 3

Row | Molecule | Classification and statistics of the grade of pesticide damage Grade 3
58 | B1 | 0
59 | B2 | 1
60 | B3 | 0

Same assay, conditions: Table 9; mesotrione 420 g ai/ha (4×); pesticide damage score

Row | Molecule | Scores
61 | B1 | 50
62 | B2 | 52
63 | B3 | 6
